First the molecules themselves.
B2: GST–Rab11a (natural protein, human, UniProt P62491 1-216, looked up)
chain: MGTRDDEYDYLFKVVLIGDSGVGKSNLLSRFTRNEFNLESKSTIGVEFATRSIQVDGKTIKAQIWDTAGQERYRAITSAYYRGAVGALLVYDIAKHLTYENVERWLKELRDHADSNIVIMLVGNKSDLRHLRAVPTDEARAFAEKNGLSFIETSALDSTNVEAAFQTILTEIYRIVSQKQMSDRRENDMSPSNNVVPIHVPPTTENKPKVQCCQNI
notes: Rab11a, human (cDNA by RT-PCR from human brain cDNA); GTPγS also in the pull-down buffers; source: E. coli, purified (GSH-Sepharose); not shown: GST, N-terminal, kept

The target in the assay “GST–Rab11a” is B2. Put plainly: pull-down; GSH-Sepharose; 0.5 μM GST–Rab11a (bait), 0–1.0 μM Flag-Myo5b-GTD, 0–1.0 μM Flag-FIP2-RBD; Buffer-B with 100 mM NaCl and 3 μM GTPγS; 4°C, 1 h; eluted with 20 mM GSH; Western blot (anti-Flag, anti-GST). Conditions: both partners purified. For orientation: A western blot detects proteins with antibodies after separation by electrophoresis.

A further assay has as its target T1, Flag-Myo5b-GTD (Rattus norvegicus (Rat), UniProt P70569).
T1 chain: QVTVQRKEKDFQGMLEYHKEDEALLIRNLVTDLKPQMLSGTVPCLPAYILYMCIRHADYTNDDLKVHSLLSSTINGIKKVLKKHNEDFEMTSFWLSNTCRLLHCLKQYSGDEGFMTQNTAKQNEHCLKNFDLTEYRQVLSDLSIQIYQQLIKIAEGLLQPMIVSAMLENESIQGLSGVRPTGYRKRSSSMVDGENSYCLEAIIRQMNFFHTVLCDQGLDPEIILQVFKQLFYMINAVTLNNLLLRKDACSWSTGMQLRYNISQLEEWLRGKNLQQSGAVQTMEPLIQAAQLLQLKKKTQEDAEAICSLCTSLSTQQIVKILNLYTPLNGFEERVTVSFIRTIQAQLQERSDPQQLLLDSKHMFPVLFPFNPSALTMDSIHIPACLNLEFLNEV
Put plainly: GST pull-down / anti-Flag pull-down; Rab11a loaded with GTPγS/Mg2+; binding competed away by FIP2-RBD.

The target in assay [1] is T2, Flag-FIP2 (full-length Rab11 family interacting protein 2) (human, UniProt Q7L804 1-512).
T2 construct: not shown: Flag, N-terminal, kept
Put plainly: pull-down; GSH-Sepharose; 0.5 μM GST–Rab11a (bait), 0–0.5 μM Flag-Myo5b-Tail, 0–1.0 μM Flag-FIP2 or Flag-FIP2-RBD; Buffer-B with 100 mM NaCl and 3 μM GTPγS; 4°C, 1 h; eluted with 20 mM GSH; Coomassie staining. Conditions: both partners purified.

B1: Flag-FIP2-RBD (domain or fragment, human, UniProt Q7L804 452-512, looked up)
chain: TYEEVLQELVKHKELLRRKDTHIRELEDYIDNLLVRVMEETPSILRVPYEPSRKAGKFSNS
notes: not shown: Flag, N-terminal, kept
Regarding B1, the binding result in the assay with GST–Rab11a is listed as “binds”.
Consider B2, for which the binding result (in the assay with Flag-Myo5b-GTD; in assay [1]) was “binds” in each case.

The values are drawn from publication PMC6328864, “Regulation of Myosin-5b by Rab11a and the Rab11 family interacting protein 2” (Bioscience Reports, 2018).
